Target: T1, human TIGIT fused to Fc (human, UniProt Q495A1 22-141)
T1 construct: Called a dimeric form of TIGIT; also called human TIGIT-Fc; human dimeric TIGIT-Fc; not shown: Fc
T1 sequence: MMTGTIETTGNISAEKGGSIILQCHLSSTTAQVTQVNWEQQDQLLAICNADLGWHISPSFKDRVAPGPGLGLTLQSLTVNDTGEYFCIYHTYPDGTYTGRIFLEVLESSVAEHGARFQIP
Experiment: SPR, human TIGIT-Fc captured on CM5 chip, BA002 Fab in solution, 1:1 model
Protocol: Briefly, surface plasmon resonance experiments were performed using a Biacore T200 instrument, and the association rate (Kₐ), dissociation rate (Kd), and dissociation constant (KD) were calculated from each experiment using a 1:1 binding model with Biacore T200 Evaluation Software.
In a similar experiment measuring binding of a monovalent form of BA002 to human TIGIT-Fe, human TIGIT-Fc was captured on flow-cell 2 of a CM5 chip, keeping flow-cell 1 as reference, at a flow rate of 5 μL/min. […] The higher calculated dissociation rate between human TIGIT-Fc and BA002 Fab, relative to the calculated dissociation rate between human TIGIT-Fc and full-length BA002 described above, is consistent with the presence of an avidity effect with the bivalent form of BA002.

- Kd: 6.8 nM
- koff: 0.019 s⁻¹
- kon: 2.8e+06 M⁻¹ s⁻¹
B1: BA002 in Fab format (Fab, V domains shown)
VH: EVQLVQSGAEVEKPGASVKVSCKASGYTFASYGISWVRQAPGQGLEWMGGITPFFNRVDVAEKFQGRVTITADTSTNTVYIELSSLTSEDTAVYYCARDLRRGGVGDAFDIWGRGTLVTVSS
VL: QSALTQPRSVSGSPGQSVTISCTGTSSDVGSHNYVSWYQQHPGKAPQLMIYEVSYRPSEISNRFSGSKSGNTASLTISGLQPEDEADYYCSSYTPSSATVFGAGTKLTVLG
modifications: chain 1 pos 1: glutamate or pyroglutamate (from Glu), written E; chain 2 pos 1: glutamine or pyroglutamate (from Gln), written Q
notes: also called BA002 Fab; monovalent form of BA002

From US20240141047A1 (AGENUS, published 2024)
